Data as given in patent publication US7098309.

What was measured:
[1] = molecular target: recombinant hepatitis B surface antigen (rHBsAg) processed without redox buffer, with formalin, formulated on alum (Bulk Alum Product) (hepatitis B virus) (UniProt P03141); assay: AUZYME sandwich ELISA on alum-formulated rHBsAg; row label names the rHBsAg preparation (group A, no redox buffer)
[2] = molecular target: recombinant hepatitis B surface antigen (rHBsAg) processed without redox buffer, with formalin, formulated on alum (Bulk Alum Product) (hepatitis B virus) (UniProt P03141); assay: AUZYME sandwich ELISA on alum-formulated rHBsAg; row label names the rHBsAg preparation (group C, no redox buffer)
[3] = molecular target: plasma-derived Dane particles (hepatitis B virus); assay: AUZYME sandwich ELISA on plasma-derived Dane particles
[4] = molecular target: improved recombinant hepatitis B surface antigen (rHBsAg) refolded in GSH/GSSG redox buffer, formalin omitted, formulated on alum (hepatitis B virus) (UniProt P03141); assay: AUZYME sandwich ELISA; row label names the rHBsAg batch (redox buffer, no formalin, glass tank)
[5] = molecular target: improved recombinant hepatitis B surface antigen (rHBsAg) refolded in GSH/GSSG redox buffer, with formalin, formulated on alum (Bulk Alum Product) (hepatitis B virus) (UniProt P03141); assay: AUZYME sandwich ELISA; row label names the rHBsAg batch (redox buffer, with formalin, glass tank)
[6] = molecular target: improved recombinant hepatitis B surface antigen (rHBsAg) refolded in GSH/GSSG redox buffer, with formalin, formulated on alum (Bulk Alum Product) (hepatitis B virus) (UniProt P03141); assay: AUZYME sandwich ELISA on alum-formulated rHBsAg; row label names the rHBsAg preparation (group A, with 1.0 mM GSH and 0.2 mM GSSG)
[7] = molecular target: improved recombinant hepatitis B surface antigen (rHBsAg) refolded in GSH/GSSG redox buffer, with formalin, formulated on alum (Bulk Alum Product) (hepatitis B virus) (UniProt P03141); assay: AUZYME sandwich ELISA on alum-formulated rHBsAg; row label names the rHBsAg preparation (group B, with 1.0 mM GSH and 0.2 mM GSSG)
[8] = molecular target: improved recombinant hepatitis B surface antigen (rHBsAg) refolded in GSH/GSSG redox buffer, formalin omitted, formulated on alum (hepatitis B virus) (UniProt P03141); assay: AUZYME sandwich ELISA; row label names the rHBsAg batch (redox buffer, no formalin, stainless steel tank)
[9] = molecular target: improved recombinant hepatitis B surface antigen (rHBsAg) refolded in GSH/GSSG redox buffer, with formalin, formulated on alum (Bulk Alum Product) (hepatitis B virus) (UniProt P03141); assay: AUZYME sandwich ELISA on alum-formulated rHBsAg; row label names the rHBsAg preparation (group C, with 1.0 mM GSH and 0.2 mM GSSG)
[10] = molecular target: recombinant hepatitis B surface antigen (rHBsAg) processed without redox buffer, with formalin, formulated on alum (Bulk Alum Product) (hepatitis B virus) (UniProt P03141); assay: AUZYME sandwich ELISA; row label names the rHBsAg batch (no redox buffer, with formalin, glass tank)
[11] = molecular target: recombinant hepatitis B surface antigen (rHBsAg) processed without redox buffer, with formalin, formulated on alum (Bulk Alum Product) (hepatitis B virus) (UniProt P03141); assay: AUZYME sandwich ELISA on alum-formulated rHBsAg; row label names the rHBsAg preparation (group B, no redox buffer)

AUZYME monoclonal enzyme immunoassay antibodies: mouse monoclonal antibodies to hepatitis B surface antigen coated on beads, and mouse monoclonal Anti-HBsAg peroxidase conjugate (antibody)
IVRP (in vitro relative potency) (relative to reference rHBsAg = 1.0) [1]: 2.09
IVRP (in vitro relative potency) (relative to reference rHBsAg = 1.0) [2]: 1.44
ELISA response (in vitro relative potency scale) (relative to reference rHBsAg = 1.0) [3]: 5
IVRP (in vitro relative potency) (relative to reference rHBsAg = 1.0) [4]: 4.62
IVRP (in vitro relative potency) (relative to reference rHBsAg = 1.0) [5]: 4.32
IVRP (in vitro relative potency) (relative to reference rHBsAg = 1.0) [6]: 3.56
IVRP (in vitro relative potency) (relative to reference rHBsAg = 1.0) [7]: 2.7
IVRP (in vitro relative potency) (relative to reference rHBsAg = 1.0) [8]: 4.3
IVRP (in vitro relative potency) (relative to reference rHBsAg = 1.0) [9]: 2.47
IVRP (in vitro relative potency) (relative to reference rHBsAg = 1.0) [10]: 2.51
IVRP (in vitro relative potency) (relative to reference rHBsAg = 1.0) [11]: 1.69
